Assay results reported in patent publication US20220411483A1 (Chugai, published 2022).

T1: FcγRIIa R type extracellular domain with C-terminal His tag (human, UniProt P12318 34-217)
T1 construct: extracellular domain; also called FcgRIIaR
T1 sequence (looked up): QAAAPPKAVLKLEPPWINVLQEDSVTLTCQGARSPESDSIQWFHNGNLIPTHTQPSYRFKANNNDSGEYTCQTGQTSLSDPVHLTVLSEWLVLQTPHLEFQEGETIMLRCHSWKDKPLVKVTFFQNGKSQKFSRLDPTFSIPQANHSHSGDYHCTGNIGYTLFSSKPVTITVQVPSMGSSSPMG


biological target: T1, FcγRIIa R type extracellular domain …; assay: SPR (Biacore), FcgR as analyte

| Kd | Binder |
| --- | --- |
| 2600 nM | IL6R-BP183/IL6R-L (antibody, human IgG1, kappa, name in EU numbering, IgG1; alterations on IL6R-B3, EU numbering) heavy: QVQLQESGPGLVKPSETLSLTCAVSGHSISHDHAWSWVRQPPGEGLEWIGFISYSGITNYNPSLQGRVTISRDNSKNTLYLQMNSLRAEDTAVYYCARSLARTTAMDYWGEGTLVTVSSASTKGPSVFPLAPSSKSTSGGTAALGCLVKDYFPEPVTVSWNSGALTSGVHTFPAVLQSSGLYSLSSVVTVPSSSLGTQTYICNVNHKPSNTKVDKKVEPKSCDKTHTCPPCPAPDYLGGDSVFLFPPKPKDTLMISRTPEVTCVVVDVSHEDGEVKFNWYVDGVEVHNAKTKPREEQYNSTYRVVSVLTVLHQDWLNGKEYKCKVSNAALPKPIEKTISKAKGQPREPQVYTLPPSRDELTKNQVSLTCLVKGFYPSDIAVEWESNGQPENNYKTTPPVLDSDGSFFLYSKLTVDKSRWQQGNVFSCSVMHEALHNHYTQESLSLSP light: not shown |
| 2300 nM | IL6R-BP184/IL6R-L (antibody, human IgG1, kappa, name in EU numbering, IgG1; alterations on IL6R-B3, EU numbering) heavy: QVQLQESGPGLVKPSETLSLTCAVSGHSISHDHAWSWVRQPPGEGLEWIGFISYSGITNYNPSLQGRVTISRDNSKNTLYLQMNSLRAEDTAVYYCARSLARTTAMDYWGEGTLVTVSSASTKGPSVFPLAPSSKSTSGGTAALGCLVKDYFPEPVTVSWNSGALTSGVHTFPAVLQSSGLYSLSSVVTVPSSSLGTQTYICNVNHKPSNTKVDKKVEPKSCDKTHTCPPCPAPDLLGGDSVFLFPPKPKDTLMISRTPEVTCVVVDVSHEDGEVKFNWYVDGVEVHNAKTKPREEQYNSTYRVVSVLTVLHQDWLNGKEYKCKVSNKALPKPIEKTISKAKGQPREPQVYTLPPSRDELTKNQVSLTCLVKGFYPSDIAVEWESNGQPENNYKTTPPVLDSDGSFFLYSKLTVDKSRWQQGNVFSCSVMHEALHNHYTQESLSLSP light: not shown |
| 960 nM | IL6R-BP186/IL6R-L (antibody, human IgG1, kappa, name in EU numbering, IgG1; alterations on IL6R-B3, EU numbering) heavy: QVQLQESGPGLVKPSETLSLTCAVSGHSISHDHAWSWVRQPPGEGLEWIGFISYSGITNYNPSLQGRVTISRDNSKNTLYLQMNSLRAEDTAVYYCARSLARTTAMDYWGEGTLVTVSSASTKGPSVFPLAPSSKSTSGGTAALGCLVKDYFPEPVTVSWNSGALTSGVHTFPAVLQSSGLYSLSSVVTVPSSSLGTQTYICNVNHKPSNTKVDKKVEPKSCDKTHTCPPCPAPDYLGDDSVFLFPPKPKDTLMISRTPEVTCVVVDVSHEDGEVKFNWYVDGVEVHNAKTKPREEQDNSTYRVVSVLTVLHQDWLNGKEYKCKVSNAALPKPIEKTISKAKGQPREPQVYTLPPSRDELTKNQVSLTCLVKGFYPSDIAVEWESNGQPENNYKTTPPVLDSDGSFFLYSKLTVDKSRWQQGNVFSCSVMHEALHNHYTQESLSLSP light: not shown |
| 1000 nM | IL6R-BP188/IL6R-L (antibody, human IgG1, kappa, name in EU numbering, IgG1; alterations on IL6R-B3, EU numbering) heavy: QVQLQESGPGLVKPSETLSLTCAVSGHSISHDHAWSWVRQPPGEGLEWIGFISYSGITNYNPSLQGRVTISRDNSKNTLYLQMNSLRAEDTAVYYCARSLARTTAMDYWGEGTLVTVSSASTKGPSVFPLAPSSKSTSGGTAALGCLVKDYFPEPVTVSWNSGALTSGVHTFPAVLQSSGLYSLSSVVTVPSSSLGTQTYICNVNHKPSNTKVDKKVEPKSCDKTHTCPPCPAPDLLGDDSVFLFPPKPKDTLMISRTPEVTCVVVDVSDEDGEVKFNWYVDGVEVHNAKTKPREEQYNSTYRVVSVLTVLHQDWLNGKEYKCKVSNKALPKPIEKTISKAKGQPREPQVYTLPPSRDELTKNQVSLTCLVKGFYPSDIAVEWESNGQPENNYKTTPPVLDSDGSFFLYSKLTVDKSRWQQGNVFSCSVMHEALHNHYTQESLSLSP light: not shown |
| 3000 nM | IL6R-BP196/IL6R-L (antibody, human IgG1, kappa, name in EU numbering, IgG1; alterations on IL6R-B3, EU numbering) heavy: QVQLQESGPGLVKPSETLSLTCAVSGHSISHDHAWSWVRQPPGEGLEWIGFISYSGITNYNPSLQGRVTISRDNSKNTLYLQMNSLRAEDTAVYYCARSLARTTAMDYWGEGTLVTVSSASTKGPSVFPLAPSSKSTSGGTAALGCLVKDYFPEPVTVSWNSGALTSGVHTFPAVLQSSGLYSLSSVVTVPSSSLGTQTYICNVNHKPSNTKVDKKVEPKSCDKTHTCPPCPAPEYLGGDSVFLFPPKPKDTLMISRTPEVTCVVVDVSDEDGEVKFNWYVDGVEVHNAKTKPREEQYNSTYRVVSVLTVLHQDWLNGKEYKCKVSNAALPKPIEKTISKAKGQPREPQVYTLPPSRDELTKNQVSLTCLVKGFYPSDIAVEWESNGQPENNYKTTPPVLDSDGSFFLYSKLTVDKSRWQQGNVFSCSVMHEALHNHYTQESLSLSP light: not shown |
| 980 nM | IL6R-BP197/IL6R-L (antibody, human IgG1, kappa, name in EU numbering, IgG1; alterations on IL6R-B3, EU numbering) heavy: QVQLQESGPGLVKPSETLSLTCAVSGHSISHDHAWSWVRQPPGEGLEWIGFISYSGITNYNPSLQGRVTISRDNSKNTLYLQMNSLRAEDTAVYYCARSLARTTAMDYWGEGTLVTVSSASTKGPSVFPLAPSSKSTSGGTAALGCLVKDYFPEPVTVSWNSGALTSGVHTFPAVLQSSGLYSLSSVVTVPSSSLGTQTYICNVNHKPSNTKVDKKVEPKSCDKTHTCPPCPAPDYLGDDSVFLFPPKPKDTLMISRTPEVTCVVVDVSDEDGEVKFNWYVDGVEVHNAKTKPREEQDNSTYRVVSVLTVLHQDWLNGKEYKCKVSNDALPKPIEKTISKAKGQPREPQVYTLPPSRDELTKNQVSLTCLVKGFYPSDIAVEWESNGQPENNYKTTPPVLDSDGSFFLYSKLTVDKSRWQQGNVFSCSVMHEALHNHYTQESLSLSP light: not shown |
| 4500 nM | IL6R-BP204/IL6R-L (antibody, human IgG1, kappa, name in EU numbering, IgG1; alterations on IL6R-B3, EU numbering) heavy: QVQLQESGPGLVKPSETLSLTCAVSGHSISHDHAWSWVRQPPGEGLEWIGFISYSGITNYNPSLQGRVTISRDNSKNTLYLQMNSLRAEDTAVYYCARSLARTTAMDYWGEGTLVTVSSASTKGPSVFPLAPSSKSTSGGTAALGCLVKDYFPEPVTVSWNSGALTSGVHTFPAVLQSSGLYSLSSVVTVPSSSLGTQTYICNVNHKPSNTKVDKKVEPKSCDKTHTCPPCPAPDLLGGDSVFLFPPKPKDTLMISRTPEVTCVVVDVSHEDGEVKFNWYVDGVEVHNAKTKPREEQYNSTYRVVSVLTVLHQDWLNGKEYKCKVSNAALPRPIEKTISKAKGQPREPQVYTLPPSRDELTKNQVSLTCLVKGFYPSDIAVEWESNGQPENNYKTTPPVLDSDGSFFLYSKLTVDKSRWQQGNVFSCSVMHEALHNHYTQESLSLSP light: not shown |
| 850 nM | IL6R-BP208/IL6R-L (antibody, human IgG1, kappa, name in EU numbering, IgG1; alterations on IL6R-B3, EU numbering) heavy: QVQLQESGPGLVKPSETLSLTCAVSGHSISHDHAWSWVRQPPGEGLEWIGFISYSGITNYNPSLQGRVTISRDNSKNTLYLQMNSLRAEDTAVYYCARSLARTTAMDYWGEGTLVTVSSASTKGPSVFPLAPSSKSTSGGTAALGCLVKDYFPEPVTVSWNSGALTSGVHTFPAVLQSSGLYSLSSVVTVPSSSLGTQTYICNVNHKPSNTKVDKKVEPKSCDKTHTCPPCPAPDLLGDDSVFLFPPKPKDTLMISRTPEVTCVVVDVSDEDGEVKFNWYVDGVEVHNAKTKPREEQYNSTYRVVSVLTVLHQDWLNGKEYKCKVSNKALPRPIEKTISKAKGQPREPQVYTLPPSRDELTKNQVSLTCLVKGFYPSDIAVEWESNGQPENNYKTTPPVLDSDGSFFLYSKLTVDKSRWQQGNVFSCSVMHEALHNHYTQESLSLSP light: not shown |
| 1000 nM | IL6R-BP210/IL6R-L (antibody, human IgG1, kappa, name in EU numbering, IgG1; alterations on IL6R-B3, EU numbering) heavy: QVQLQESGPGLVKPSETLSLTCAVSGHSISHDHAWSWVRQPPGEGLEWIGFISYSGITNYNPSLQGRVTISRDNSKNTLYLQMNSLRAEDTAVYYCARSLARTTAMDYWGEGTLVTVSSASTKGPSVFPLAPSSKSTSGGTAALGCLVKDYFPEPVTVSWNSGALTSGVHTFPAVLQSSGLYSLSSVVTVPSSSLGTQTYICNVNHKPSNTKVDKKVEPKSCDKTHTCPPCPAPELLGDDSVFLFPPKPKDTLMISRTPEVTCVVVDVSDEDGEVKFNWYVDGVEVHNAKTKPREEQYNSTYRVVSVLTVLHQDWLNGKEYKCKVSNKALPRPIEKTISKAKGQPREPQVYTLPPSRDELTKNQVSLTCLVKGFYPSDIAVEWESNGQPENNYKTTPPVLDSDGSFFLYSKLTVDKSRWQQGNVFSCSVMHEALHNHYTQESLSLSP light: not shown |
| 4100 nM | IL6R-BP211/IL6R-L (antibody, human IgG1, kappa, name in EU numbering, IgG1; alterations on IL6R-B3, EU numbering) heavy: QVQLQESGPGLVKPSETLSLTCAVSGHSISHDHAWSWVRQPPGEGLEWIGFISYSGITNYNPSLQGRVTISRDNSKNTLYLQMNSLRAEDTAVYYCARSLARTTAMDYWGEGTLVTVSSASTKGPSVFPLAPSSKSTSGGTAALGCLVKDYFPEPVTVSWNSGALTSGVHTFPAVLQSSGLYSLSSVVTVPSSSLGTQTYICNVNHKPSNTKVDKKVEPKSCDKTHTCPPCPAPDLLGGDSVFLFPPKPKDTLMISRTPEVTCVVVDVSDEDGEVKFNWYVDGVEVHNAKTKPREEQYNSTYRVVSVLTVLHQDWLNGKEYKCKVSNAALPRPIEKTISKAKGQPREPQVYTLPPSRDELTKNQVSLTCLVKGFYPSDIAVEWESNGQPENNYKTTPPVLDSDGSFFLYSKLTVDKSRWQQGNVFSCSVMHEALHNHYTQESLSLSP light: not shown |
| 600 nM | IL6R-BP223/IL6R-L (antibody, human IgG1, kappa, name in EU numbering, IgG1; alterations on IL6R-B3, EU numbering) heavy: QVQLQESGPGLVKPSETLSLTCAVSGHSISHDHAWSWVRQPPGEGLEWIGFISYSGITNYNPSLQGRVTISRDNSKNTLYLQMNSLRAEDTAVYYCARSLARTTAMDYWGEGTLVTVSSASTKGPSVFPLAPSSKSTSGGTAALGCLVKDYFPEPVTVSWNSGALTSGVHTFPAVLQSSGLYSLSSVVTVPSSSLGTQTYICNVNHKPSNTKVDKKVEPKSCDKTHTCPPCPAPEYLGDDSVFLFPPKPKDTLMISRTPEVTCVVVDVSDEDGEVKFNWYVDGVEVHNAKTKPREEQYNSTYRVVSVLTVLHQDWLNGKEYKCKVSNAALPRPIEKTISKAKGQPREPQVYTLPPSRDELTKNQVSLTCLVKGFYPSDIAVEWESNGQPENNYKTTPPVLDSDGSFFLYSKLTVDKSRWQQGNVFSCSVMHEALHNHYTQESLSLSP light: not shown |

biological target: T2, FcγRIa extracellular domain with C-terminal His tag (human, UniProt P12314 16-292); assay: SPR (Biacore), FcgR as analyte
T2 construct: also called FcgRIa
T2 sequence (P12314 16-292): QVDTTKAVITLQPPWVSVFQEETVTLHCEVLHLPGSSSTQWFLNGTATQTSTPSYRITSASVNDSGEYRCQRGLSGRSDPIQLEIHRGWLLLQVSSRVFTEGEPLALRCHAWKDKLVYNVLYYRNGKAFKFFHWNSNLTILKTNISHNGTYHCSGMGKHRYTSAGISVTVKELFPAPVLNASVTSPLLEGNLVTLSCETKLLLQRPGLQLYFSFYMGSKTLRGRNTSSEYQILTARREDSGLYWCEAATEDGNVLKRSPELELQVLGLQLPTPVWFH

| Kd | Binder |
| --- | --- |
| 98 nM | IL6R-BP180/IL6R-L (antibody, human IgG1, kappa, name in EU numbering, IgG1; alterations on IL6R-B3, EU numbering) heavy: QVQLQESGPGLVKPSETLSLTCAVSGHSISHDHAWSWVRQPPGEGLEWIGFISYSGITNYNPSLQGRVTISRDNSKNTLYLQMNSLRAEDTAVYYCARSLARTTAMDYWGEGTLVTVSSASTKGPSVFPLAPSSKSTSGGTAALGCLVKDYFPEPVTVSWNSGALTSGVHTFPAVLQSSGLYSLSSVVTVPSSSLGTQTYICNVNHKPSNTKVDKKVEPKSCDKTHTCPPCPAPELLGDDSVFLFPPKPKDTLMISRTPEVTCVVVDVSHEDGEVKFNWYVDGVEVHNAKTKPREEQYNSTYRVVSVLTVLHQDWLNGKEYKCKVSNKALPKPIEKTISKAKGQPREPQVYTLPPSRDELTKNQVSLTCLVKGFYPSDIAVEWESNGQPENNYKTTPPVLDSDGSFFLYSKLTVDKSRWQQGNVFSCSVMHEALHNHYTQESLSLSP light: not shown |
